These results are taken from patent publication US20060062729A1, “Enhanced ligand binding to neurotensin receptors” (priority 2004, published 2006).

In one experiment the test system is PC3 cells. The experiment in a line: ATP-induced IP formation in PC3 cells. It counts as cell-based. As to conditions: maximal dose of ATP (10 μM).
The target of a further experiment is T1, EGF receptor (Homo sapiens, UniProt P00533).
T1 construct: endogenous in cells; host or cells: PC3 cells (ATCC)
The experiment in a line: ^125I-EGF binding to PC3 cells. As to conditions: PC3 cells (text to Table 9).

In experiment [1] the target is T2, NTR1 (Homo sapiens, UniProt P30989). Briefly: ^125I-NT binding to isolated PC3 cell membranes. Also on record: Ab-NTR1 detected two major bands in extracts of PC3 cells, the parent protein of 50 kDa; endogenous in cells; host or cells: PC3 cells (ATCC).
For experiment [2], the target named is T2, NTR1. The experiment in a line: ^125I-NT binding to PC3 cells.
The next experiment addresses T3, 5-LOX (Homo sapiens, UniProt P09917).
T3 sequence (P09917 1-674): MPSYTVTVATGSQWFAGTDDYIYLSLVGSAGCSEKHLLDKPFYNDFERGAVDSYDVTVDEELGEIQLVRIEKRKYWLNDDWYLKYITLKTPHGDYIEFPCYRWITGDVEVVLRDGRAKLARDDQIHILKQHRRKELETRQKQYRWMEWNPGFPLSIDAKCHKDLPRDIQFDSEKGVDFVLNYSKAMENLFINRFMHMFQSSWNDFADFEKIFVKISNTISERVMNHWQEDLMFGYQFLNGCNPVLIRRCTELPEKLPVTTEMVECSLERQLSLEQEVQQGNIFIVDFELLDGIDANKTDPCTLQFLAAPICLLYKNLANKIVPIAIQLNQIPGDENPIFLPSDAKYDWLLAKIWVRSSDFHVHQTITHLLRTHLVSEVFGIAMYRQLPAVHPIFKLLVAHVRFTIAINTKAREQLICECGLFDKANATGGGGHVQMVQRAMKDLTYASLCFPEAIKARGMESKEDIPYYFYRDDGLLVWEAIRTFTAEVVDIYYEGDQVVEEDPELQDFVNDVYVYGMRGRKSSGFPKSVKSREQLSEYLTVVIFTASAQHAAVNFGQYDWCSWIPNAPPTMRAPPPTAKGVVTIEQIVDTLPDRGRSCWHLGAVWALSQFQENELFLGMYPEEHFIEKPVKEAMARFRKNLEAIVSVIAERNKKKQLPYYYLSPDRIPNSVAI
As to conditions: range of reported values, various blood cell systems; cited from earlier work.

The next experiment addresses T4, bombesin receptor (Homo sapiens, UniProt P30550).
T4 construct: endogenous in cells; host or cells: PC3 cells (ATCC)
The experiment in a line: ^125I-[Nle^14]-bombesin binding to PC3 cells. The settings on record: for Specific Binding (% control) of ^125I-[Nle14]-bombesin: 37° C.

Experiment [3] has as its target T2, NTR1. Briefly: UV crosslinking of ^125I-(4-azido-Phe^6)-NT into immunoprecipitated NTR1 of PC3 cells. Format: binding. Set-up: Ab-NTR1 detected two major bands in extracts of PC3 cells, the parent protein of 50 kDa; endogenous in cells; host or cells: PC3 cells (ATCC). As to conditions: 50 μM agent.
The target in experiment [4] is T2, NTR1. The experiment in a line: NT-induced IP formation in PC3 cells. Set-up: Ab-NTR1 detected two major bands in extracts of PC3 cells, the parent protein of 50 kDa; endogenous in cells; host or cells: PC3 cells (ATCC). It counts as cell-based. The settings on record: maximal % decrease in NT-induced IP formation.
The target of experiment [5] is T2, NTR1. It counts as cell-based. Also on record: Ab-NTR1 detected two major bands in extracts of PC3 cells, the parent protein of 50 kDa; endogenous in cells; host or cells: PC3 cells (ATCC). The settings on record: 50 μM agent, 37° C., ^125I-NT prebound at 4° C.
Experiment [6] concerns the target neurotensin-2 receptor (NTR2) (Homo sapiens, UniProt O95665). As to conditions: read-out: binding affinity; cited from earlier work.
The target of experiment [7] is neurotensin-1 receptor (NTR1) (Homo sapiens, UniProt P30989). As to conditions: read-out: binding affinity; cited from earlier work.
The target of experiment [8] is vasopressin (V1a) receptor of PC3 cells (UniProt P37288). Briefly: 125I-ligand binding to PC3 cells with 12 µM SKF-96365.
For experiment [9] the target is unchanged. Briefly: 125I-ligand binding to PC3 cells, 37 C, with 60 µM MK886.
Experiment [10] has the same target. Briefly: 125I-ligand binding to PC3 cells, 37 C, with 12 µM AA-861.
For experiment [11] the target is unchanged. Briefly: 125I-ligand binding to PC3 cells with 12 µM phloretin.
Experiment [12] shares this target. Briefly: 125I-ligand binding to PC3 cells with 12 µM NIF.
Experiment [13] shares this target. Briefly: 125I-ligand binding to PC3 cells, 37 C, with 12 µM Rev-5901.
Experiment [14] shares this target. Briefly: 125I-ligand binding to PC3 cells with 12 µM verapamil.
For experiment [15] the target is unchanged. The experiment in a line: 125I-ligand binding to PC3 cells with 60 µM SKF-96365.
Experiment [16] shares this target. Briefly: 125I-ligand binding to PC3 cells, 37 C, with 60 µM Rev-5901.
Experiment [17] has the same target. Briefly: 125I-ligand binding to PC3 cells, 37 C, with 12 µM MK886.
For experiment [18] the target is unchanged. The experiment in a line: 125I-HOLVA binding to PC3 cell membranes with 60 µM verapamil.
Experiment [19] has the same target. Briefly: 125I-HOLVA binding to PC3 cell membranes with 60 µM NIF.
The target is the same in experiment [20]. The experiment in a line: Scatchard analysis, PC3 cells.
Experiment [21] has the same target. Briefly: 125I-HOLVA binding to PC3 cell membranes with 60 µM SKF-96365.
Experiment [22] shares this target.
For experiment [23] the target is unchanged. The experiment in a line: 125I-ligand binding to PC3 cells, 37 C, with 60 µM AA-861.
For experiment [24] the target is unchanged. Briefly: 125I-ligand binding to PC3 cells with 60 µM verapamil.
The target is the same in experiment [25]. The experiment in a line: 125I-ligand binding to PC3 cells with 60 µM phloretin.
Experiment [26] has the same target. Briefly: 125I-ligand binding to PC3 cells.
Experiment [27] has the same target. The experiment in a line: 125I-ligand binding to PC3 cells with 60 µM NIF.
Experiment [28] shares this target. The experiment in a line: 125I-ligand binding to PC3 cells, 37 C, with 12 µM NDGA.
Experiment [29] shares this target. The experiment in a line: 125I-ligand binding to PC3 cells, 37 C, with 60 µM NDGA.

Where “and” joins values, the source holds several entries; their conditions need not be identical. Equal values may be shown once. No end group written: not given here. Bounds are passed on as bounds.

In general, EC50 refers to the concentration that produces a half-maximal response. In general, IC50 refers to the concentration at which inhibition is half-maximal. Broadly, the Ki is a measure of affinity in units of concentration, obtained from inhibition or displacement. A lower Ki goes with higher affinity.

Chain of vasopressin (V1a) receptor of PC3 cells (P37288 whole entry): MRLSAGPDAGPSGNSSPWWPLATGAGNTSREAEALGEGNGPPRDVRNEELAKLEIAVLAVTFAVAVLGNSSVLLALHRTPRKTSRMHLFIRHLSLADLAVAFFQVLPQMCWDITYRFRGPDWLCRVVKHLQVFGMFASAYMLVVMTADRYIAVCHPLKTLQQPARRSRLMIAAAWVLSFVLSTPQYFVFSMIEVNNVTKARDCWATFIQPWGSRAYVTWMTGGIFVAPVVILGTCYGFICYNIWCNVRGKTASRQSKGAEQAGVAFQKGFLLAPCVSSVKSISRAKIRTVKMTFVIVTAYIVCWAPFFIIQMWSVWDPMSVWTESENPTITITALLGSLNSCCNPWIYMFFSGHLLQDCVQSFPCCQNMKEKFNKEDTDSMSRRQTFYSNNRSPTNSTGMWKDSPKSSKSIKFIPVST
T2 sequence (P30989 whole entry): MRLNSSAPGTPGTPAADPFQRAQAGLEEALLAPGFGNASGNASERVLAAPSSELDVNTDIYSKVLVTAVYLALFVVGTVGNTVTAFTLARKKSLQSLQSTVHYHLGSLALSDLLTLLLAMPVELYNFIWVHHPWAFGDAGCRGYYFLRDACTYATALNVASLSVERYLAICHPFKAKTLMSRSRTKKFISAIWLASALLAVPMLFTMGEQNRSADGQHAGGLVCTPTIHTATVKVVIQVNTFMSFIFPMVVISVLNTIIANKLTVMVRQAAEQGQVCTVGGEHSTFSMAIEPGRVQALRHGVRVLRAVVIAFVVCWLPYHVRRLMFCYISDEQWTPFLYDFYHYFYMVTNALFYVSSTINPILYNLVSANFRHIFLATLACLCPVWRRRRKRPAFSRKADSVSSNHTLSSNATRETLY
T4 sequence (P30550 whole entry): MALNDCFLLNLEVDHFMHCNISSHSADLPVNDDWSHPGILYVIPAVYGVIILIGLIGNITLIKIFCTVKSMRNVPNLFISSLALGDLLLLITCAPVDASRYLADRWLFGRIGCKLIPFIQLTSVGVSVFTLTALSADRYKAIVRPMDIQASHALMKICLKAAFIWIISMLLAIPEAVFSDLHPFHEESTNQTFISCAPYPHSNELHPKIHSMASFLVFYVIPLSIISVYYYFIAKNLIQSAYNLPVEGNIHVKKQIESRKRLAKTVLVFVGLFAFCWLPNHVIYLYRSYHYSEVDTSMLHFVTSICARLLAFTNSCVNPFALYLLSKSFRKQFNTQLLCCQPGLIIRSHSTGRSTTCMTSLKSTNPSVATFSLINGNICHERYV
Chain of neurotensin-1 receptor (NTR1) (P30989 whole entry, species assumed): as the sequence (P30989 whole entry) above
Chain of neurotensin-2 receptor (NTR2) (O95665 whole entry, species assumed): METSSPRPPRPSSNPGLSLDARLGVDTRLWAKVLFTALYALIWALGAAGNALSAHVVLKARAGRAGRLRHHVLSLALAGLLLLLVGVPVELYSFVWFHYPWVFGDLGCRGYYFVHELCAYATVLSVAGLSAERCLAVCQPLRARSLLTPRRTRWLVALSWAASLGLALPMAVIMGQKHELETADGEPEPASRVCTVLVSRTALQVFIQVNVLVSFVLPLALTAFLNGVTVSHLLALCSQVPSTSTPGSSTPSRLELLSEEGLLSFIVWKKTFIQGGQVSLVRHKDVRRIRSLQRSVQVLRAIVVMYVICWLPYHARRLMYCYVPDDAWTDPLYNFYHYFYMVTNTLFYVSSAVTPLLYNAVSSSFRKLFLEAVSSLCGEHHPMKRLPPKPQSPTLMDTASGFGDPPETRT
T1 sequence (P00533 25-1210): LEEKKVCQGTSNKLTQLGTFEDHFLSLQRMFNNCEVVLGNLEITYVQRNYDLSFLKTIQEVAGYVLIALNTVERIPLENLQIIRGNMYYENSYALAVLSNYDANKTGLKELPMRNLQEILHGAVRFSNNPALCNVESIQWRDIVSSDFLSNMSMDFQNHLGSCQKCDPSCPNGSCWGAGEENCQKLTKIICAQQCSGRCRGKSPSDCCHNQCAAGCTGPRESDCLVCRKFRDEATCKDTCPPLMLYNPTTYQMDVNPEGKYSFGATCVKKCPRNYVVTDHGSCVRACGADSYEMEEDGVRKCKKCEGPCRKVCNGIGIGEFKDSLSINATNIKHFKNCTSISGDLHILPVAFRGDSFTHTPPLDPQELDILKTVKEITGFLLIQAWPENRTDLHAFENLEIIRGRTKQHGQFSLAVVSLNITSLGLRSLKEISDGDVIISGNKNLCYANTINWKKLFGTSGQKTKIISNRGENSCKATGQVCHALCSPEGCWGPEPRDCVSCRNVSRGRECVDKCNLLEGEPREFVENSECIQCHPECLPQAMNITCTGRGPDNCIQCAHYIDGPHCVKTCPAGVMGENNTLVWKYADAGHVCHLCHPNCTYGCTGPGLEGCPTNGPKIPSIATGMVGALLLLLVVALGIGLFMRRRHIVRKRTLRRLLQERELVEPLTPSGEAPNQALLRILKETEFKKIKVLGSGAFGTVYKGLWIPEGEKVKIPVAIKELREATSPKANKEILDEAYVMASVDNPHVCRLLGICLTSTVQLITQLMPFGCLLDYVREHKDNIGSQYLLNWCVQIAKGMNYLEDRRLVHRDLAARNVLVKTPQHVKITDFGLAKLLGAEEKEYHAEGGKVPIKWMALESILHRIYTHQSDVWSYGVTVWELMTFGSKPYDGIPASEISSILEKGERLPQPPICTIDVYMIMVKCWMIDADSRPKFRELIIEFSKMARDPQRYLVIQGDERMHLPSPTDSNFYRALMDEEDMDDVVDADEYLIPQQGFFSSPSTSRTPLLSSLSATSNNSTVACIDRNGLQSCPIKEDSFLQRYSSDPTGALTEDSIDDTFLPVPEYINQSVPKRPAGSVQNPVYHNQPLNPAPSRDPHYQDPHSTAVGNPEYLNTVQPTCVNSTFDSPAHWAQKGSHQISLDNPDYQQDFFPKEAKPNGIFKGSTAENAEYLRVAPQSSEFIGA

As to `Nc1ncnc2c1ncn2[C@@H]1O[C@H](COP(=O)(O)OP(=O)(O)OP(=O)(O)O)[C@@H](O)[C@H]1O` [ATP], in the experiment on PC3 cells, the “stimulation of IP formation” value was ~17 fold and > 15 fold.
As for `CC(C)c1ccc2c(c1)c(SC(C)(C)C)c(CC(C)(C)C(=O)O)n2Cc1ccc(Cl)cc1` [MK886], the “increase in EGF binding” value on EGF receptor was determined as 65%. Further, the “Specific NT-Binding (% control)” value was 99 ± 3 % control on NTR1 [1] (10 μM LOX pathway blocker), 107 ± 4 % control on NTR1 [1] (25 μM LOX pathway blocker) and 97 ± 4 % control at NTR1 [1] (75 μM LOX pathway blocker). Besides, the “NT Binding Efficacy % increase” value on NTR1 [2] (LOX blockers) was 210 % increase. In addition, the “maximal increase in NT binding to PC3 cells” value on NTR1 [2] (as much as / up to, dose-response) is no more than 3.0 fold. Moreover, the concentration for a half-maximal effect (EC50) on NTR1 [2] (read-out: NT Binding EC50, [agent] giving 100% increase in NT binding) was 18000 nM. The IC50 at 5-LOX was 100 to 1000 nM. Also, the entries for the “Specific Binding (% control) of ^125I-[Nle14]-bombesin” value on bombesin receptor (12 μM LOX blocker) and at bombesin receptor (60 μM LOX blocker) were 106 ± 5 % control and 125 ± 7 % control, respectively. Besides, the “radioactivity associated with NTR1” value at NTR1 [3] stood at 2.7±0.3 fold.
In the case of `O=C(CCc1ccc(O)cc1)c1c(O)cc(O)cc1O` [Phloretin], the “Specific NT-Binding (% control)” value on NTR1 [1] (10 μM agent, 22° C., 60 minutes) was 110 ± 7 % control; at NTR1 [1] (25 μM agent), 105 ± 8 % control; on NTR1 [1] (75 μM agent) it was 97 ± 8 % control. Further, the “IP Formation Efficacy (% decrease)” value on NTR1 [4] was found to be 70 % decrease. For the same compound, the “NT Binding Efficacy % increase” value at NTR1 [2] (maximal % increase in NT binding observed for each agent) is 186 % increase. The “Specific Binding (% control) of ^125I-[Nle^14]-bombesin” value was determined as 104 ± 3 % control on bombesin receptor (12 μM agent) and 111 ± 4 % control at bombesin receptor (60 μM agent). Also, on NTR1 [5], the Internalization rate came to 8.1±0.7 %/minute.
As for “Trp 11 NT(1-13): peptide identical to NT (1-13) except tryptophan for tyrosine at amino acid 11 (QLYENKPRRPWIL; ends and bridges not checked; UniProt P30990 151-163, looked up, variant Y11W)”, the results for the Kd in [6] and in experiment [7] were roughly 27 nM and roughly 1 nM, respectively.
For the compound “des-Gly-[Phaa1, D-Tyr(Et)2, Lys6, Arg8]-vasopressin (HOLVA) (peptide)”, the Specific Binding (% control) in experiment [8] worked out at 80 % control; in [9], 67 % control; in [10] it was 87 % control; in experiment [11], 92 % control; in experiment [12] it was 95 % control; in experiment [13] it was 68 % control. Further, the Specific Binding (% control) turned out to be 85 % control in experiment [14]; 50 % control in [15]; 42 % control in [16]; 93 % control in [17]; 57 % control in experiment [23]; 58 % control in experiment [24]. In addition, the Specific Binding (% control) in [25] turned out to be 73 % control; in [27] it was 59 % control; in [28], 84 % control; in experiment [29], 50 % control. Besides, the figures for the Binding (% control) in experiment [18], in experiment [19] and in experiment [21] were 91 % control, 90 % control and 110 % control, respectively. This compound also returned a Bmax in experiment [20] of 156 fmol/mg. Further, in [22], the Ki amounted to 0.5 nM. Moreover, in experiment [26], the Specific Binding (% of total) was 77 % of total.
